Results taken from US20240118272A1.

Columns and labels:
[1] = target: CD63(ECD)-ALP conjugate (human; bovine); assay: HI-1000 capture immunoassay; calibrator C3, 22.84 mU/L; run 3
[2] = target: CD63(ECD)-ALP conjugate (human; bovine); assay: HI-1000 capture immunoassay; calibrator C1, 2.5 ng/mL; run 3
[3] = target: CD63(ECD)-ALP conjugate (human; bovine); assay: HI-1000 capture immunoassay; calibrator C4, 313 ng/mL; mean of 3
[4] = target: CD63(ECD)-ALP conjugate (human; bovine); assay: HI-1000 capture immunoassay; calibrator C5, 1563 ng/mL; run 3
[5] = target: CD63(ECD)-ALP conjugate (human; bovine); assay: HI-1000 capture immunoassay; calibrator C5, 1563 ng/mL; run 1
[6] = target: CD63(ECD)-ALP conjugate (human; bovine); assay: HI-1000 capture immunoassay; calibrator C1, 2.5 ng/mL; mean of 3
[7] = target: CD63(ECD)-ALP conjugate (human; bovine); assay: HI-1000 capture immunoassay; calibrator C3, 62.5 ng/mL; run 3
[8] = target: CD63(ECD)-ALP conjugate (human; bovine); assay: HI-1000 capture immunoassay; calibrator C1, 2.5 ng/mL; run 1
[9] = target: CD63(ECD)-ALP conjugate (human; bovine); assay: HI-1000 capture immunoassay; calibrator C3, 22.84 mU/L; run 1
[10] = target: CD63(ECD)-ALP conjugate (human; bovine); assay: HI-1000 capture immunoassay; calibrator C2, 12.5 ng/mL; mean of 3
[11] = target: CD63(ECD)-ALP conjugate (human; bovine); assay: HI-1000 capture immunoassay; calibrator C5, 1563 ng/mL; mean of 3
[12] = target: CD63(ECD)-ALP conjugate (human; bovine); assay: HI-1000 capture immunoassay; calibrator C3, 22.84 mU/L; run 2
[13] = target: CD63(ECD)-ALP conjugate (human; bovine); assay: HI-1000 capture immunoassay; calibrator C4, 91.36 mU/L; run 3
[14] = target: CD63(ECD)-ALP conjugate (human; bovine); assay: HI-1000 capture immunoassay; calibrator C4, 91.36 mU/L; run 1
[15] = target: CD63(ECD)-ALP conjugate (human; bovine); assay: HI-1000 capture immunoassay; calibrator C4, 91.36 mU/L; run 2
[16] = target: CD63(ECD)-ALP conjugate (human; bovine); assay: HI-1000 capture immunoassay; calibrator C1, 1.43 mU/L; mean of 3
[17] = target: CD63(ECD)-ALP conjugate (human; bovine); assay: HI-1000 capture immunoassay; calibrator C3, 62.5 ng/mL; run 1
[18] = target: CD63(ECD)-ALP conjugate (human; bovine); assay: HI-1000 capture immunoassay; calibrator C3, 62.5 ng/mL; mean of 3
[19] = target: CD63(ECD)-ALP conjugate (human; bovine); assay: HI-1000 capture immunoassay; calibrator C5, 365.43 mU/L; run 3
[20] = target: CD63(ECD)-ALP conjugate (human; bovine); assay: HI-1000 capture immunoassay; calibrator C4, 313 ng/mL; run 1
[21] = target: CD63(ECD)-ALP conjugate (human; bovine); assay: HI-1000 capture immunoassay; calibrator C4, 91.36 mU/L; mean of 3
[22] = target: CD63(ECD)-ALP conjugate (human; bovine); assay: HI-1000 capture immunoassay; calibrator C2, 12.5 ng/mL; run 2
[23] = target: CD63(ECD)-ALP conjugate (human; bovine); assay: HI-1000 capture immunoassay; calibrator C2, 5.71 mU/L; run 3
[24] = target: CD63(ECD)-ALP conjugate (human; bovine); assay: HI-1000 capture immunoassay; calibrator C4, 313 ng/mL; run 3
[25] = target: CD63(ECD)-ALP conjugate (human; bovine); assay: HI-1000 capture immunoassay; calibrator C1, 1.43 mU/L; run 3
[26] = target: CD63(ECD)-ALP conjugate (human; bovine); assay: HI-1000 capture immunoassay; calibrator C5, 365.43 mU/L; run 2
[27] = target: CD63(ECD)-ALP conjugate (human; bovine); assay: HI-1000 capture immunoassay; calibrator C3, 22.84 mU/L; mean of 3
[28] = target: CD63(ECD)-ALP conjugate (human; bovine); assay: HI-1000 capture immunoassay; calibrator C2, 5.71 mU/L; mean of 3
[29] = target: CD63(ECD)-ALP conjugate (human; bovine); assay: HI-1000 capture immunoassay; calibrator C1, 1.43 mU/L; run 1
[30] = target: CD63(ECD)-ALP conjugate (human; bovine); assay: HI-1000 capture immunoassay; calibrator C4, 313 ng/mL; run 2
[31] = target: CD63(ECD)-ALP conjugate (human; bovine); assay: HI-1000 capture immunoassay; calibrator C2, 5.71 mU/L; run 1
[32] = target: CD63(ECD)-ALP conjugate (human; bovine); assay: HI-1000 capture immunoassay; calibrator C2, 12.5 ng/mL; run 1
[33] = target: CD63(ECD)-ALP conjugate (human; bovine); assay: HI-1000 capture immunoassay; calibrator C3, 62.5 ng/mL; run 2
[34] = target: CD63(ECD)-ALP conjugate (human; bovine); assay: HI-1000 capture immunoassay; calibrator C5, 365.43 mU/L; mean of 3
[35] = target: CD63(ECD)-ALP conjugate (human; bovine); assay: HI-1000 capture immunoassay; calibrator C5, 365.43 mU/L; run 1
[36] = target: CD63(ECD)-ALP conjugate (human; bovine); assay: HI-1000 capture immunoassay; calibrator C1, 2.5 ng/mL; run 2
[37] = target: CD63(ECD)-ALP conjugate (human; bovine); assay: HI-1000 capture immunoassay; calibrator C1, 1.43 mU/L; run 2
[38] = target: CD63(ECD)-ALP conjugate (human; bovine); assay: HI-1000 capture immunoassay; calibrator C2, 12.5 ng/mL; run 3
[39] = target: CD63(ECD)-ALP conjugate (human; bovine); assay: HI-1000 capture immunoassay; calibrator C5, 1563 ng/mL; run 2
[40] = target: CD63(ECD)-ALP conjugate (human; bovine); assay: HI-1000 capture immunoassay; calibrator C2, 5.71 mU/L; run 2

Sequence of CD63(ECD)-ALP conjugate (human; bovine) (chain, as listed by the source, chain 1 of 2): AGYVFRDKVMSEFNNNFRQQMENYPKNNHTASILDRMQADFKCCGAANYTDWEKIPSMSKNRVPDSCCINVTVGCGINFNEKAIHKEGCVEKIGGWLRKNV
Sequence of CD63(ECD)-ALP conjugate (human; bovine) (P19111 20-506, chain 2 of 2): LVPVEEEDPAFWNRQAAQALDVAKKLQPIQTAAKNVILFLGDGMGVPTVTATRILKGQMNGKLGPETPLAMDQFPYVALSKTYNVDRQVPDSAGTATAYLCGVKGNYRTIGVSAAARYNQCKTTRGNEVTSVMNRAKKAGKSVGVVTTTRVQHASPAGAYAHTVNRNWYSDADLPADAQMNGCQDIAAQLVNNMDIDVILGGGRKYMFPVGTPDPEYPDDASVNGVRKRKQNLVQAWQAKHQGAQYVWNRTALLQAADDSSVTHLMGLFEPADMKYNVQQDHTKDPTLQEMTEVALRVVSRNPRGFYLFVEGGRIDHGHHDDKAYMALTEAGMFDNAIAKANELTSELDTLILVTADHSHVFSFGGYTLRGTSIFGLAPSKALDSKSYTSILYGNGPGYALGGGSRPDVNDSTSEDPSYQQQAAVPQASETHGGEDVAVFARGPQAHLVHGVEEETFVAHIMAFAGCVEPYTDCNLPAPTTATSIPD

Count value [1]: 9080 count | Count [2]: 743 count | Count (av) [3]: 41900 count | Count [4]: 213000 count | Count [5]: 218000 count | Count (av) [6]: 755 count | Count [7]: 8490 count | Count [8]: 770 count | Count value [9]: 9140 count | Count (av) [10]: 2180 count | Count (av) [11]: 212000 count | Count value [12]: 9240 count | Count value [13]: 42700 count | Count value [14]: 43000 count | Count value [15]: 42200 count | Count value (av) [16]: 896 count | Count [17]: 8690 count | Count (av) [18]: 8810 count | Count value [19]: 207000 count | Count [20]: 41700 count | Count value (av) [21]: 42600 count | Count [22]: 2120 count | Count value [23]: 2240 count | Count [24]: 42800 count | Count value [25]: 916 count | Count value [26]: 212000 count | Count value (av) [27]: 9160 count | Count value (av) [28]: 2290 count | Count value [29]: 900 count | Count [30]: 41300 count | Count value [31]: 2260 count | Count [32]: 2160 count | Count [33]: 9250 count | Count value (av) [34]: 208000 count | Count value [35]: 206000 count | Count [36]: 751 count | Count value [37]: 871 count | Count [38]: 2260 count | Count [39]: 205000 count | Count value [40]: 2380 count
Substance: anti-CD63 antibody (Clone: H5C6)
